# Source: patent US20260266848A1, “COMPOSITIONS AND METHODS FOR DIAGNOSING AND TREATING DYSTONIA” (Duke University, priority 2023, published 2026)
# B1: Hnrnpl (protein, UniProt P14866 1-589, looked up)
# Heterogeneous nuclear …: MSRRLLPRAEKRRRRLEQRQQPDEQRRRSGAMVKMAAAGGGGGGGRYYGGGSEGGRAPKRLKTDNAGDQHGGGGGGGGGAGAAGGGGGGENYDDPHKTPASPVVHIRGLIDGVVEADLVEALQEFGPISYVVVMPKKRQALVEFEDVLGACNAVNYAADNQIYIAGHPAFVNYSTSQKISRPGDSDDSRSVNSVLLFTILNPIYSITTDVLYTICNPCGPVQRIVIFRKNGVQAMVEFDSVQSAQRAKASLNGADIYSGCCTLKIEYAKPTRLNVFKNDQDTWDYTNPNLSGQGDPGSNPNKRQRQPPLLGDHPAEYGGPHGGYHSHYHDEGYGPPPPHYEGRRMGPPVGGHRRGPSRYGPQYGHPPPPPPPPEYGPHADSPVLMVYGLDQSKMNCDRVFNVFCLYGNVEKVKFMKSKPGAAMVEMADGYAVDRAITHLNNNFMFGQKLNVCVSKQPAIMPGQSYGLEDGSCSYKDFSESRNNRFSTPEQAAKNRIQHPSNVLHFFNAPLEVTEENFFEICDELGVKRPSSVKVFSGKSERSSSGLLEWESKSDALETLGFLNHYQMKNPNGPYPYTLKLCFSTAQHAS
# B2: Copb2 (protein, UniProt O55029 1-905, looked up)
# Coatomer subunit beta': MPLRLDIKRKLTARSDRVKSVDLHPTEPWMLASLYNGSVCVWNHETQTLVKTFEVCDLPVRAAKFVARKNWVVTGADDMQIRVFNYNTLERVHMFEAHSDYIRCIAVHPTQPFILTSSDDMLIKLWDWDKKWSCSQVFEGHTHYVMQIVINPKDNNQFASASLDRTIKVWQLGSSSPNFTLEGHEKGVNCIDYYSGGDKPYLISGADDRLVKIWDYQNKTCVQTLEGHAQNVSCASFHPELPIIITGSEDGTVRIWHSSTYRLESTLNYGMERVWCVASLRGSNNVALGYDEGSIIVKLGREEPAMSMDANGKIIWAKHSEVQQANLKAMGDTEIKDGERLPLAVKDMGSCEIYPQTIQHNPNGRFVVVCGDGEYIIYTAMALRNKSFGSAQEFAWAHDSSEYAIRESNSIVKIFKNFKEKKSFKPDFGAESIYGGFLLGVRSVNGLAFYDWENTELIRRIEIQPKHIFWSDSGELVCIATEESFFILKYLSEKVLAAQETHEGVTEDGIEDAFEVLGEIQEIVKTGLWVGDCFIYTSSVNRLNYYVGGEIVTIAHLDRTMYLLGYIPKDNRLYLGDKELNIVSYSLLVSVLEYQTAVMRRDFSMADKVLPTIPKEQRTRVAHFLEKQGFKQQALTVSTDPEHRFELALQLGELKIAYQLAVEAESEQKWKQLAELAISKCQFSLAQECLHHAQDYGGLLLLATASGNASMVNKLAEGAERDGKNNVAFMSYFLQGKLDACLELLIRTGRLPEAAFLARTYLPSQVSRVVKLWRENLSKVNQKAAESLADPTEYENLFPGLKEAFVVEEWVKETHADLWPAKQYPLVTPNEERNVMEEAKGFQPSRPTAQQEPDGKPASSPVIMASQTTHKEEKSLLELEVDLDNLELEDIDTTDINLDEDILDD
# B3: Pbdc1 (protein, UniProt Q9D0B6 1-198, looked up)
# Protein PBDC1: MDAAGESEEPVSGEALSIAHALSHPPESYGNDPDIEMAWAIRAMQHAEVYYKLISSVDPQFLKLTKVDDQIYSEFREIFETLRVDVLDPEELKSESAKEKWRPFCLKFEGIVEDYNYGTLLRLDCSQGYTEENTIFAPRIQFFAIEIARNREGYNKAVSVSIQDKEGEEGAGNKEEAAEKGADSGGEKEEGANREGEK
# B4: Rab3gap2 (protein, UniProt Q8BMG7 1-1366, looked up)
# Rab3 GTPase-activating …: MACSIVQFCSFQDLQSARDFLFPHLREETPGALKRDPSKTSSWEDDSWGAWEETEPREPEEEGNTSKTQKNSWLQECVLSLSPTSDLMVIAREQKAAFLVRKWKHGDKGKEEMQFAVGWSGSVSAEEGEYVTSALCIPLASQKRSSTGRPDWTCIVVGFTSGYVRFYTEGVLLLAQLLNEDKVLQLKCRTYEIPRHPGVTEQNEELSILYPAAIVTIDGFSLFQSLRACRNQVAKAAASGNENIQPPPLAYKKWGLQDIDTIIDHASVGIMTLSPFDQMKTASNIGGFNAAIKNSPPAMSQYITVGSSPFTGFFYALEGSTQPLLSHVALAVASKLTSALFSAASGWLGWKSKHEEDTVQKQKPKMEPATPLAVRFGLPDSRRHGESICLSPCNTLAAVTDDFGRVILLDVARGIAIRMWKGYRDAQVGWIQIVEDLHERVPEKGGFSPFGNTQGPSRVAQFLVIYAPRRGILEVWNTQQGPRVGAFNVGKHCRLLYPGYKIMGLNNVTSQSWQPQTYQICLVDPVSASVKAVNVPFHLALSDKKSERAKDLHLVKKLSALLRAKSPRPDSFETEIKELILDIKYPATKKQALESILASDRLSFSCLRNVTQTLMDTLKNQELESVDEGLLQFCASKLKLLHLYESVSQLNTLDFHSDTPFSDNDLAVLLRLDDKELLKLRALLEKYKQENTKATVRFSEDADRVLPVKTFLEYLEYEKDALSIRKIGEEECVALGSFFFWKCLHGKSSTEEMCHSLESAGLSPQQLLSLLLSVWLSKEKDILDKPQSVCCLHTMLSLLSKMKVAIDETWDSQSVSPWWQQMRMACIQSENSGAALLSAHVGHSVAAQMSSGATDKKFSQMELDADAEALTDSWEALSLDTEYWKLLLRQLEDCLILQTLLHSKLSPPAAKAPSLQSEPLPRLSVKKLLEGGKGGIADSVAKWIFKQDLSPELLKCANKERDVENPDEPREDLLHLAYEQFPCSLELDVLHAHCCWEYVVQWNKDPEEARFLVRSIEHLKQILNPHVQNGIALMMWNTFLVKRFSAATYLMDKVGKSPKDRLCRRDVGMSDTALTSFLGSCLELLQTSLEADISRDEVQVPVLDTEDAWLSVEGPISIVELALEQKPIHYPLVEHHSVLCSILYASMRFSLKSVKPLALFDSKGKNAFFKDLTSIQLLPSGEMDPNFISVRQQFLLKVVSAAVQAQHSKDKDPSAEAANTHWKDLNWPGLAVDLAHHLQVSDDVIRRHYVGELYSHGADLLGEEAIFQVQDKEVLASQLLVLTGQRLAHALFHTQTKEGMELLARLPPTLCTWLKAMNPQDLQNTGVPIAATAKLVHKVMELLPEKHGQYSLALHLIDAVEAMATL
# B5: Ap1b1 (protein, UniProt O35643 1-943, looked up)
# AP-1 complex subunit beta-1: MTDSKYFTTTKKGEIFELKAELNSDKKEKKKEAVKKVIASMTVGKDVSALFPDVVNCMQTDNLELKKLVYLYLMNYAKSQPDMAIMAVNTFVKDCEDPNPLIRALAVRTMGCIRVDKITEYLCEPLRKCLKDEDPYVRKTAAVCVAKLHDINAQLVEDQGFLDTLKDLISDSNPMVVANAVAALSEIAESHPSSNLLDLNPQSINKLLTALNECTEWGQIFILDCLANYMPKDDREAQSICERVTPRLSHANSAVVLSAVKVLMKFMEMLSKDLDYYATLLKKLAPPLVTLLSAEPELQYVALRNINLIVQKRPEILKHEMKVFFVKYNDPIYVKLEKLDIMIRLASQANIAQVLAELKEYATEVDVDFVRKAVRAIGRCAIKVEQSAERCVSTLLDLIQTKVNYVVQEAIVVIKDIFRKYPNKYESVIATLCENLDSLDEPEARAAMIWIVGEYAERIDNADELLESFLEGFHDESTQVQLQLLTAIVKLFLKKPTETQELVQQVLSLATQDSDNPDLRDRGYIYWRLLSTDPVAAKEVVLAEKPLISEETDLIEPTLLDELICYIGTLASVYHKPPNAFVEGGRGVVHKSLPPRTASSESTESPETAPAGAPAGDQPDVIPAQGDLLGDLLNLDLGPPVSGPPLAASSVQMGAVDLLGGGLDSLIGDSNFGAPSASVAAAPAPARLGAPISSGLSDLFDLTSGVGTLSGSYVAPKAVWLPAMKAKGLEISGTFTRQAGSISMDLQLTNKALQVMTDFAIQFNRNSFGLAPAAPLQVHVPLSPNQTVEISLPLNTVGSVLKMEPLNNLQVAVKNNIDVFYFSTLYPLHVLFVEDGKMDRQMFLATWKDIANENEAQFQIRDCPLNTEAASNKLQSSNIFTVAKRNVEGQDMLYQSLKLTNGIWVLAELRIQPGNPSFTLSLKCRAPEVSQHVYQAYETILKN
# B6: Dpp3 (protein, UniProt Q99KK7 2-738, looked up)
# Dipeptidyl peptidase 3: ADTQYILPNDIGVSSLDCREAFRLLSPTERLYAHHLSRAAWYGGLAVLLQTSPEAPYIYALLSRLFRAQDPDQLRQHALAEGLTEEEYQAFLVYAAGVYSNMGNYKSFGDTKFVPNLPKDKLGRVILGSKAAQQRPEEVRDLWQTCGDLMFSLEPRLRHLGLGKEGVTTYFSGDCTMEDAKLAQDFLDSQNLSAYNTRLFKVVGQEGKSHYEVRLASVLNTDPALDSELTSKLKRYEFQGNHFQVTRGDYAPILQKVVEHLEKAKAYAANSHQEQMLAQYVESFTQGSIEAHKRGSRFWIQDKGPIVESYIGFIESYRDPFGSRGEFEGFVAMVNKAMSAKFERLVASAEQLLKELPWPLAFEKDKFLTPDFTSLDVLTFAGSGIPAGINIPNYDDLRQTEGFKNVSLGNVLAVAYAAKREKLTFLEEEDKDLYIRWKGPSFDVQVGLHELLGHGSGKLFVQDEKGAFNFDKETVINPETGEQIQSWYRSGETWDSKFSTIASSYEECRAESVGLYLCLNPQVLEIFGFEGADAEDVIYVNWLNMVRAGLLALEFYTPEAANWRQAHMQARFVILRVLLEAGEGLVTVTPTTGSDGRPDARVRLDRSKIRSVGRPALERFLRRLQVLKSTGDVVAGRALYEGYAAVTDAPPECFLTLRDTVLLRKESRKLIVQPNTRLEGSEVQLVEYEASAAGLIRSFCERFPEDGPELEEVLIQLAAADARFWRNQAQEAPPGQA
# System: DYT-TOR1A MEF EVs
# Experiment: Quantitative LC-MS/MS proteomics of EVs from drug-treated DYT-TOR1A MEF cultures (ritonavir, salubrinal)
# Type: cell-based, mouse
# Design: key to RTV Corrective Direction / RTV Corrective Direction, Grwd1 / RTV Corrective Direction, Srrm2 / RTV Corrective Direction, Rbm17 / RTV Corrective Direction, Dcaf8 / RTV Corrective Direction, Edil3 / RTV Corrective Direction, Timp3 / RTV Corrective Direction, Heatr3 / RTV Corrective Direction, Brd4 / RTV Corrective Direction, P3h4 / RTV Corrective Direction, Pacsin3 / RTV Corrective Direction, Naa50 / RTV Corrective Direction, Lpar6 / RTV Corrective Direction, Ndrg1 / RTV Corrective Direction, Kntc1 / RTV Corrective Direction, Cdk11b / RTV Corrective Direction, Sumo1 / RTV Corrective Direction, Lsm4 / RTV Corrective Direction, Hmga2 / RTV Corrective Direction, Cstf1 / RTV Corrective Direction, Tes / RTV Corrective Direction, Sbno1 / RTV Corrective Direction, Unc119b / RTV Corrective Direction, Cfdp1 / RTV Corrective Direction, Sec61b: YES = protein abundance effect opposite to DYT/WT
# Conditions: EV protein abundance, DYT + RTV (ritonavir) vs DYT, direction compared with DYT/WT
row,Molecule,RTV Corrective Direction
1,B1,YES
2,B2,YES
3,B3,YES
4,B4,YES
5,B5,YES
6,B6,YES

# Same assay, conditions: EV protein abundance, ritonavir (RTV)-treated DYT vs DYT
row,Molecule,DYT + RTV/DYT Cohen's d
1,B1,6.17
2,B2,6.13
3,B3,3.36
4,B4,4.70
5,B5,4.53
6,B6,5.13

# System: WT MEF EVs
# Experiment: Quantitative LC-MS/MS proteomics of EVs from ISRIB-treated WT MEF cultures
# Type: cell-based, mouse
# Design: key to ISRIB and DYT Parallel Direction / ISRIB and DYT Parallel Direction, Ctdsp1 / ISRIB and DYT Parallel Direction, Pcdh19 / ISRIB and DYT Parallel Direction, Tspan7 / ISRIB and DYT Parallel Direction, Myo1e / ISRIB and DYT Parallel Direction, Plpp3 / ISRIB and DYT Parallel Direction, Sh3bp4 / ISRIB and DYT Parallel Direction, Dnajc7 / ISRIB and DYT Parallel Direction, Drg1 / ISRIB and DYT Parallel Direction, Maea: YES = protein abundance effect similar to DYT/WT
# Conditions: EV protein abundance, ISRIB-treated WT vs WT
row,Molecule,WT + ISRIB/WT Cohen's d
1,B1,−0.32
2,B2,−1.11
3,B3,−1.06
4,B4,−0.43
5,B5,−1.08
6,B6,−1.56

# Same assay, conditions: EV protein abundance, WT + ISRIB vs WT, direction compared with DYT/WT
row,Molecule,ISRIB and DYT Parallel Direction
1,B1,YES
2,B2,YES
3,B3,YES
4,B4,YES
5,B5,YES
6,B6,YES
